Laboratory results as given in the supplement of paper PMC9112550, “Optimization of the antimicrobial peptide Bac7 by deep mutational scanning” (BMC Biology, 2022).

The sequences below were run on Escherichia coli TOP10 (assay: shrunken log2 fold change of peptide-encoding DNA abundance (4.5 h post-induction vs induction); higher = less antimicrobial activity (less host growth inhibition)). Conditions: time post-induction: 4.5 h; library: site-saturation at positions 5, 18, 19, 20.
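Also: peptides expressed intracellularly from a pBAD plasmid library in pooled LB shake-flask culture, induced with 0.3% L-arabinose, DNA abundance read by NGS, three biological replicates, DESeq2 with apeglm shrinkage.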

Sequence | shrunken log2 fold change
RRIRVRPPRLPRPRPRPNNAPRP | -0.0777
RRIRMRPPRLPRPRPRPATSPRP | 0.654
RRIRKRPPRLPRPRPRPMSVPRP | -0.39
RRIRRRPPRLPRPRPRPDLEPRP | 0.0267
RRIRCRPPRLPRPRPRPEHGPRP | 0.11
RRIRSRPPRLPRPRPRPDEHPRP | -0.125
RRIRTRPPRLPRPRPRPVSPPRP | -0.194
RRIRYRPPRLPRPRPRPRMLPRP | -1.08
RRIRSRPPRLPRPRPRPPWPPRP | 0.51
RRIRCRPPRLPRPRPRPTGIPRP | 0.287
RRIRERPPRLPRPRPRPMKHPRP | -0.794
RRIRWRPPRLPRPRPRPNQFPRP | 0.0104
RRIRERPPRLPRPRPRPIMMPRP | -0.689
RRIRLRPPRLPRPRPRPPQDPRP | 0.348
RRIRGRPPRLPRPRPRPCLCPRP | 0.655
RRIRCRPPRLPRPRPRPPKTPRP | -0.00862
RRIRIRPPRLPRPRPRPRTTPRP | -0.25
RRIRVRPPRLPRPRPRPNNTPRP | -0.418
RRIRGRPPRLPRPRPRPHIDPRP | 0.301
RRIRERPPRLPRPRPRPWFYPRP | -0.985
RRIRNRPPRLPRPRPRPQDYPRP | 0.087
RRIRERPPRLPRPRPRPHPNPRP | -0.0522
RRIRLRPPRLPRPRPRPKCQPRP | -0.319
RRIRTRPPRLPRPRPRPTRKPRP | 0.443
RRIRFRPPRLPRPRPRPAQPPRP | 0.277

Sequence | shrunken log2 fold change
RRIRMRPPRLPRPRPRPNWRPRP | 0.0183
RRIRYRPPRLPRPRPRPIVAPRP | -0.246
RRIRCRPPRLPRPRPRPYDWPRP | -0.204
RRIRCRPPRLPRPRPRPTQDPRP | 0.805
RRIRHRPPRLPRPRPRPLRSPRP | 0.549
RRIRIRPPRLPRPRPRPDTCPRP | 0.0578
RRIRYRPPRLPRPRPRPGIFPRP | -0.708
RRIRYRPPRLPRPRPRPYLHPRP | -0.0309
RRIRWRPPRLPRPRPRPLYMPRP | -0.684
RRIRARPPRLPRPRPRPWVPPRP | -0.146
RRIRERPPRLPRPRPRPSDVPRP | -0.182
RRIRPRPPRLPRPRPRPEICPRP | 0.0345
RRIRWRPPRLPRPRPRPLMNPRP | -0.0906
RRIRCRPPRLPRPRPRPGVAPRP | 0.632
RRIRTRPPRLPRPRPRPQDNPRP | -0.669
RRIRIRPPRLPRPRPRPKKTPRP | -0.235
RRIRKRPPRLPRPRPRPYCLPRP | -0.17
RRIRWRPPRLPRPRPRPKGHPRP | 0.108
RRIRPRPPRLPRPRPRPRKHPRP | 0.0952
RRIRPRPPRLPRPRPRPNWTPRP | 0.218
RRIRNRPPRLPRPRPRPLIRPRP | -0.0892
RRIRPRPPRLPRPRPRPPCTPRP | 0.00476
RRIRPRPPRLPRPRPRPTTKPRP | 0.253
RRIRERPPRLPRPRPRPKPHPRP | 0.000708
RRIRARPPRLPRPRPRPAPDPRP | 0.93

Sequence | shrunken log2 fold change
RRIRHRPPRLPRPRPRPQMIPRP | -0.139
RRIRPRPPRLPRPRPRPHQMPRP | 0.0123
RRIRDRPPRLPRPRPRPSRMPRP | -0.0207
RRIRSRPPRLPRPRPRPKNSPRP | -0.431
RRIRIRPPRLPRPRPRPEYRPRP | -1.12
RRIRGRPPRLPRPRPRPHFDPRP | 0.469
RRIRHRPPRLPRPRPRPTVAPRP | 0.325
RRIRIRPPRLPRPRPRPITLPRP | -0.237
RRIRGRPPRLPRPRPRPFVTPRP | 0.0292
RRIRERPPRLPRPRPRPGNEPRP | -0.0966
RRIRYRPPRLPRPRPRPEDTPRP | -0.00443
RRIRSRPPRLPRPRPRPCMQPRP | -0.31
RRIRMRPPRLPRPRPRPDKRPRP | 0.076
RRIRLRPPRLPRPRPRPYHCPRP | -0.575
RRIRIRPPRLPRPRPRPSDAPRP | -0.0664
RRIRYRPPRLPRPRPRPMHFPRP | -0.00783
RRIRLRPPRLPRPRPRPCVDPRP | 0.0214
RRIRNRPPRLPRPRPRPEMHPRP | 0.191
RRIRFRPPRLPRPRPRPMELPRP | 0.112
RRIRSRPPRLPRPRPRPMTNPRP | -0.309
RRIRMRPPRLPRPRPRPHCGPRP | -0.033
RRIRCRPPRLPRPRPRPNMNPRP | -0.88
RRIRVRPPRLPRPRPRPDMAPRP | 0.00912
RRIRLRPPRLPRPRPRPHCHPRP | -0.727
RRIRRRPPRLPRPRPRPNDWPRP | 0.24

Sequence | shrunken log2 fold change
RRIRDRPPRLPRPRPRPTKDPRP | 0.0518
RRIRFRPPRLPRPRPRPDNLPRP | 0.0632
RRIRMRPPRLPRPRPRPSNVPRP | -0.259
RRIRVRPPRLPRPRPRPFDLPRP | -0.24
RRIRIRPPRLPRPRPRPPDWPRP | 0.286
RRIRARPPRLPRPRPRPDGTPRP | 0.288
RRIRWRPPRLPRPRPRPQIEPRP | 0.0601
RRIRCRPPRLPRPRPRPSVDPRP | -0.139
RRIRVRPPRLPRPRPRPLYMPRP | -0.128
RRIRHRPPRLPRPRPRPTFQPRP | -0.067
RRIRSRPPRLPRPRPRPEYMPRP | -0.609
RRIRARPPRLPRPRPRPYKRPRP | -0.23
RRIRVRPPRLPRPRPRPEPFPRP | 0.0811
RRIRTRPPRLPRPRPRPGINPRP | -0.324
RRIRHRPPRLPRPRPRPAFGPRP | 0.105
RRIRARPPRLPRPRPRPRLVPRP | 0.512
RRIRLRPPRLPRPRPRPKKYPRP | -0.143
RRIRSRPPRLPRPRPRPHTIPRP | -0.87
RRIRWRPPRLPRPRPRPVNCPRP | 0.0456
RRIRGRPPRLPRPRPRPYYYPRP | -0.824
RRIRFRPPRLPRPRPRPDCNPRP | -0.179
RRIRRRPPRLPRPRPRPPPDPRP | 1.35
RRIRARPPRLPRPRPRPKQYPRP | -0.0335
RRIRNRPPRLPRPRPRPFASPRP | -0.0512
RRIRSRPPRLPRPRPRPFHDPRP | -0.204

Sequence | shrunken log2 fold change
RRIRKRPPRLPRPRPRPYKVPRP | -0.558
RRIRHRPPRLPRPRPRPLLIPRP | -0.516
RRIRERPPRLPRPRPRPPWCPRP | 0.217
RRIRQRPPRLPRPRPRPISMPRP | 0.0161
RRIRARPPRLPRPRPRPMRIPRP | 0.155
RRIRCRPPRLPRPRPRPKARPRP | 0.315
RRIRGRPPRLPRPRPRPEFTPRP | 0.74
RRIRHRPPRLPRPRPRPTQEPRP | -0.0394
RRIRYRPPRLPRPRPRPTWHPRP | -0.349
RRIRRRPPRLPRPRPRPAGSPRP | 0.384
RRIRNRPPRLPRPRPRPKVQPRP | 0.341
RRIRKRPPRLPRPRPRPWAKPRP | 0.0651
RRIRSRPPRLPRPRPRPKMSPRP | -0.105
RRIRERPPRLPRPRPRPRTFPRP | -0.0471
RRIRKRPPRLPRPRPRPHWCPRP | 1.98
RRIRERPPRLPRPRPRPHTHPRP | -1.01
RRIRYRPPRLPRPRPRPISDPRP | -0.237
RRIRSRPPRLPRPRPRPFFMPRP | -0.288
RRIRNRPPRLPRPRPRPFVSPRP | -0.394
RRIRDRPPRLPRPRPRPKCDPRP | 0.0437
RRIRNRPPRLPRPRPRPGIDPRP | -0.042
RRIRKRPPRLPRPRPRPVLQPRP | -0.0875
RRIRVRPPRLPRPRPRPWMDPRP | 0.0171
RRIRTRPPRLPRPRPRPSWEPRP | 0.0239
RRIRYRPPRLPRPRPRPWRTPRP | -0.298
